± gives the uncertainty stated by the source.
Assay: protein stability index of a GFP-peptide fusion (yeast GPS) (PSI 1-4); higher = more stable; sorted into four equal gates, so the index is relative within each strain
Procedure, shortened: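 Sequencing reads from sorted gates were used to score each peptide. The library consisted of tiled 17-residue yeast protein peptides fused downstream of GFP on a Cherry-expressing plasmid, pooled and carried in yeast. Mid-log cultures in leucine-free medium were split into four equal gates by GFP/Cherry ratio, and each gate's plasmids were PCR-amplified and Illumina-sequenced. The protein stability index adds up, over all gates, the read frequency multiplied by the gate number.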

| Sequence | protein stability index (doa10∆) | protein stability index (pdr5∆) | protein stability index (san1∆) | protein stability index (ubr1∆) |
| --- | --- | --- | --- | --- |
| DNETPSKKTSPKATSSA [YOR098C/NUP1] | 2.1 ± 0.05 | 2.52 ± 0.049 | 2.41 ± 0.064 | 3.026 ± 0.029 |
| DILSQILYGLVDKGAIM [YJL039C/NUP192] | 2.87 ± 0.11 | 2.87 ± 0.25 | 2.95 ± 0.19 | 2.79 ± 0.28 |
| TLDVEAFKSVVSTETFE [RPL27A] | 2.4 ± 0.069 | 2.74 ± 0.051 | 2.59 ± 0.051 | 2.46 ± 0.053 |
| AGNLITTPEINNFIVER [SRP68] | 2.79 ± 0.067 | 3.07 ± 0.061 | 3.18 ± 0.061 | 2.82 ± 0.049 |
| TAVVNNAAPANVTGGKA [SWI1] | 2.64 ± 0.038 | 1.98 ± 0.04 | 2.37 ± 0.093 | 2.66 ± 0.037 |
| NLLPKKSAKTAKASQEL [HTA2] | 2.92 ± 0.092 | 3.05 ± 0.12 | 2.87 ± 0.11 | 3.18 ± 0.048 |
| SREVLRYEEFADKVKLG [RPC40] | 2.96 ± 0.08 | 3.26 ± 0.19 | 3.17 ± 0.12 | 3.21 ± 0.14 |
| IVLGVKDLQENLLVLRG [RPO21] | 1.43 ± 0.078 | 1.35 ± 0.057 | 2.87 ± 0.059 | 1.5 ± 0.071 |
| LRSKTSAGRIESNNPSH [SIR4] | 2.56 ± 0.1 | 2.48 ± 0.081 | 2.55 ± 0.18 | 2.79 ± 0.098 |
| NKGAKAEDVALNEQVKK [NAS6] | 2.98 ± 0.2 | 2.96 ± 0.19 | 2.77 ± 0.15 | 3.1 ± 0.075 |
| ESMDFLVLADAFDIELS [YCS4] | 2.32 ± 0.039 | 2.82 ± 0.043 | 2.64 ± 0.055 | 2.64 ± 0.039 |
| KISNSKLLSLLRSKTSA [SIR4] | 2.19 ± 0.058 | 2.45 ± 0.044 | 2.3 ± 0.08 | 2.29 ± 0.055 |
| RDGVLTVTLNKNREVVQ [RRP45] | 2.71 ± 0.11 | 2.93 ± 0.11 | 2.81 ± 0.08 | 2.73 ± 0.088 |
| MMQDPQMQQMAKQFGMG [SRP54] | 3.15 ± 0.039 | 2.93 ± 0.043 | 3.03 ± 0.031 | 2.75 ± 0.027 |
| KEYELLTLQEDYIKDEQ [RPT3] | 3.53 ± 0.12 | 3.13 ± 0.11 | 3.19 ± 0.083 | 3.25 ± 0.065 |
| ADVLAMAKVEVNLAAIP [RIP1] | 1.84 ± 0.12 | 1.99 ± 0.13 | 1.82 ± 0.22 | 2.05 ± 0.077 |
| SHDKKTKCSTVVKASEL [SRP14] | 3.02 ± 0.18 | 3.46 ± 0.22 | 3.05 ± 0.17 | 3.33 ± 0.11 |
| SKASMQKEQNVNNRDSE [YCS4] | 2.78 ± 0.069 | 2.98 ± 0.067 | 2.05 ± 0.076 | 2.77 ± 0.042 |
| SQIRLYAKFKRNTMMIQ [RGR1] | 2.44 ± 0.21 | 2.37 ± 0.11 | 2.14 ± 0.11 | 2.61 ± 0.13 |
| NVTFGSKKDPRILKNVS [YMR153W/NUP53] | 2.81 ± 0.053 | 2.69 ± 0.056 | 2.81 ± 0.045 | 2.67 ± 0.035 |

| Sequence | protein stability index (doa10∆) | protein stability index (pdr5∆) | protein stability index (san1∆) | protein stability index (ubr1∆) |
| --- | --- | --- | --- | --- |
| AKTELNEVSLAIKKSSM [SMC2] | 3.03 ± 0.06 | 3.12 ± 0.087 | 3.04 ± 0.11 | 2.96 ± 0.053 |
| GYVSSLVEPSKVGQFDQ [FAS1] | 1.52 ± 0.082 | 1.94 ± 0.082 | 1.72 ± 0.12 | 1.91 ± 0.078 |
| SNKPIFLFAPELGAINL [SWI1] | 2.23 ± 0.062 | 1.91 ± 0.051 | 2.08 ± 0.089 | 2.11 ± 0.046 |
| KRRKLDLNNAVQKRDEV [SMC4] | 3.41 ± 0.26 | 2.89 ± 0.12 | 2.96 ± 0.068 | 2.96 ± 0.079 |
| SEFANQNQGGAQAPFDI [ROX3] |  |  | 3.28 ± 0.22 | 3.48 ± 0.094 |
| AVAVGNVEMEEDVLVNQ [RPL1A] | 2.19 ± 0.091 | 2.17 ± 0.075 | 1.17 ± 0.11 | 2 ± 0.059 |
| RAKAEAAEFRYKYGYDM [SCL1] | 2.85 ± 0.065 | 2.91 ± 0.063 | 2.71 ± 0.058 | 2.57 ± 0.047 |
| LGITGLATDVTTLNEMF [PUP3] | 2.2 ± 0.16 | 2.39 ± 0.11 | 2.24 ± 0.16 | 2.27 ± 0.11 |
| DLSMVPKMKDEEYDDDD [SNF2] | 2.9 ± 0.13 | 3.22 ± 0.14 | 3.24 ± 0.098 | 2.99 ± 0.12 |
| LTSNLSNYSRTMTISHL [YJL039C/NUP192] | 2.56 ± 0.074 | 2.32 ± 0.061 | 1.98 ± 0.084 | 2.48 ± 0.04 |
| VSNPGDNPPPADNGEEY [MED2] | 3.14 ± 0.071 | 2.86 ± 0.1 | 3.13 ± 0.074 | 3.29 ± 0.11 |
| DTRSTQGPIVADKNCAK [PUP1] | 3.13 ± 0.11 | 3.59 ± 0.12 | 3.15 ± 0.1 | 3.04 ± 0.086 |
| SWSSSAAVIMRCKIYFF [PCI8] | 1.24 ± 0.055 | 1.71 ± 0.058 | 1.34 ± 0.11 | 1.28 ± 0.047 |
| NDIAGQPQALQKSGRPV [RPO21] | 2.93 ± 0.087 | 3.16 ± 0.12 | 2.84 ± 0.16 | 2.96 ± 0.073 |
| SLSEGCDILVATPGRLI [PRP28] | 3.47 ± 0.12 | 3.23 ± 0.084 | 3.25 ± 0.047 | 3.28 ± 0.05 |
| NLSSTPMETLLSGLSAD [YML031W/NDC1] | 2.42 ± 0.075 | 2.59 ± 0.071 | 2.53 ± 0.055 | 2.42 ± 0.038 |
| LNEAQGHIVSLELTTGA [SMD3] | 1.47 ± 0.053 | 1.9 ± 0.059 | 1.59 ± 0.14 | 1.85 ± 0.072 |
| KLSKILPRYQELTKEEA [SMC3] | 3.16 ± 0.11 | 3.34 ± 0.094 | 3.34 ± 0.086 | 3.35 ± 0.1 |
| GSQKTFEIDDEHRIRVF [RPS6A] | 1.75 ± 0.089 | 2.76 ± 0.14 | 1.97 ± 0.16 | 2.5 ± 0.21 |

Source: the supplement of paper PMC9732359
